In patent US20170298146A1 (MODIQUEST B V, published 2017):
Non-standard residues stand in square brackets, D forms with d. No end group written: not given here. Cit = NC(=O)NCCC[C@H](N)C(=O)O

Assays:
[1] = target: T1, Histone 2A citrulline-containing peptide 8 (human, also: biotin label); test: peptide ELISA, 10 ug/well
T1 peptide: AGNAA[Cit]DNKKTR
Experimental: (§1) Biotin and citrulline-containing peptides derived from histone 2A were immobilized on NEUTRAVIDIN®-coated 96-well ELISA plates (0.3 μg/well). CFC-1 and CFC-0 were coated at the same concentration and served as positive and negative controls respectively for specific anti-citrulline reactivity and as coating controls. Non-coated wells were used to test for aspecific binding of the antibodies. […] Detection of bound anti-citrulline antibodies was performed by incubating the wells with rabbit-anti-human-HRP (1:2000) for one hour at RT followed by incubation with TMB substrate. The resulting OD (y-axis) is a measure for antibody binding.
(§2) Ninety-six-well ELISA plates were coated with NEUTRAVIDIN® (0.1 μg/well) by overnight incubation at 4° C. Wells were washed five times with PBS-TWEEN®-20 (PBS-T) and blocked by a one-hour incubation with PBS-T+1% Bovine serum albumin (BSA) at room temperature (RT). After five more washes with PBS-T, wells were incubated for one hour at RT with histone-derived citrulline and biotin-containing peptides (0.3 μg/well). […] Wells were washed five times with PBS-T and incubated with rabbit-anti-human-HRP (1:2000) for one hour at RT followed by five washes with PBS-T and three wash steps with PBS. Wells were incubated for five minutes with TMB substrate before stopping the reaction with 2 M H₂SO₄. Optical density was measured by 450 nm and is a measure for the affinity of the antibodies used.

[2] = target: T2, Histone 2A citrulline-containing peptide 10 (human, also: biotin label); test: peptide ELISA, 10 ug/well
T2 peptide: TRIIP[Cit]HLQLAI
Experimental: as §1, §2

huFibα XH = target: T3, huFibα XH (human, X at position 15 is citrulline; biotin label); test: peptide ELISA, 2 ug/well
T3 peptide: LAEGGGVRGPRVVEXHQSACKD
Experimental: as §1, with “fibrinogen and vimentin” for “histone 2A”
(§3) Biotin-labeled and citrulline-containing fibrinogen and vimentin peptides (Table 5) were also tested for reactivity with the therapeutic antibodies. Peptides were coated on 96-well NEUTRAVIDIN®-ELISA plates.

huFibα XG = target: T4, huFibα XG (human, X at position 8 is citrulline; biotin label); test: peptide ELISA, 2 ug/well
T4 peptide: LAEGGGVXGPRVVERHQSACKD
Experimental: as §1, with “fibrinogen and vimentin” for “histone 2A”
as §3

[3] = target: T5, human recombinant histone H4 (human, UniProt P62805 2-103); test: ELISA, 0.4 ug/well
Experimental: (§4) CFC-1 and CFC-0 were coated at the same concentration and served as positive and negative controls, respectively, for specific anti-citrulline reactivity and as coating controls. Non-coated wells were used to test for aspecific binding of the antibodies. […] Detection of bound anti-citrulline antibodies was performed by incubating the wells with rabbit-anti-human-HRP (1:2000) for one hour at RT followed by incubation with TMB substrate. The resulting OD (y-axis) is a measure for antibody binding. H1=recombinant histone 1; H1/p2=huPAD2 recombinant histone 1; H1/p4=huPAD4 recombinant histone 1 and so forth (x-axis).

CFC-1 [4] = target: T6, CFC-1; test: ELISA, 0.4 ug/well
T6 construct: Positive control for anti-citrulline reactivity; also called cfc1 XG
Experimental: as §4

[5] = target: T7, human recombinant histone H2A (human); test: ELISA, 0.4 ug/well
T7 construct: Non-deiminated
Experimental: as §4

[6] = target: T8, huPAD2 deiminated human recombinant histone H2B (human); test: ELISA, 0.4 ug/well
T8 construct: also called H2B/p2
Experimental: as §4

[7] = target: T9, huPAD2 deiminated human recombinant histone H2A (human); test: ELISA, 0.4 ug/well
T9 construct: also called H2A/p2
Experimental: as §4

[8] = target: T10, huPAD2 deiminated human recombinant histone H3 (human); test: ELISA, 0.4 ug/well
T10 construct: also called H3/p2
Experimental: as §4

[9] = target: T11, huPAD4 deiminated human recombinant histone H2A (human); test: ELISA, 0.4 ug/well
T11 construct: also called H2A/p4; huPAD4 deiminated histone 2A
Experimental: as §4

[10] = target: T12, huPAD4 deiminated human recombinant histone H3 (human); test: ELISA, 0.4 ug/well
T12 construct: also called H3/p4
Experimental: as §4

[11] = target: T13, huPAD4 deiminated human recombinant histone H2B (human); test: ELISA, 0.4 ug/well
T13 construct: also called H2B/p4
Experimental: as §4

[12] = target: T5, human recombinant histone H4; test: ELISA, 0.0032 ug/well
Experimental: as §4, with “Deiminated, as well as non-deiminated histones, were immobilized on 96-well ELISA plates (0.3 μg/well). CFC-1” for “CFC-1”

CFC-1 [13] = target: T6, CFC-1; test: ELISA, 0.0032 ug/well
Experimental: as §4, with “Deiminated, as well as non-deiminated histones, were immobilized on 96-well ELISA plates (0.3 μg/well). CFC-1” for “CFC-1”

[14] = target: T14, human recombinant histone H2B (human); test: ELISA, 0.0032 ug/well
T14 construct: Non-deiminated
Experimental: as §4, with “Deiminated, as well as non-deiminated histones, were immobilized on 96-well ELISA plates (0.3 μg/well). CFC-1” for “CFC-1”

[15] = target: T8, huPAD2 deiminated human recombinant …; test: ELISA, 0.0032 ug/well
Experimental: as §4, with “Deiminated, as well as non-deiminated histones, were immobilized on 96-well ELISA plates (0.3 μg/well). CFC-1” for “CFC-1”

[16] = target: T9, huPAD2 deiminated human recombinant …; test: ELISA, 0.0032 ug/well
Experimental: as §4, with “Deiminated, as well as non-deiminated histones, were immobilized on 96-well ELISA plates (0.3 μg/well). CFC-1” for “CFC-1”

[17] = target: T10, huPAD2 deiminated human recombinant …; test: ELISA, 0.0032 ug/well
Experimental: as §4, with “Deiminated, as well as non-deiminated histones, were immobilized on 96-well ELISA plates (0.3 μg/well). CFC-1” for “CFC-1”

[18] = target: T11, huPAD4 deiminated human recombinant …; test: ELISA, 0.0032 ug/well
Experimental: as §4, with “Deiminated, as well as non-deiminated histones, were immobilized on 96-well ELISA plates (0.3 μg/well). CFC-1” for “CFC-1”

[19] = target: T12, huPAD4 deiminated human recombinant …; test: ELISA, 0.0032 ug/well
Experimental: as §4, with “Deiminated, as well as non-deiminated histones, were immobilized on 96-well ELISA plates (0.3 μg/well). CFC-1” for “CFC-1”

[20] = target: T13, huPAD4 deiminated human recombinant …; test: ELISA, 0.0032 ug/well
Experimental: as §4, with “Deiminated, as well as non-deiminated histones, were immobilized on 96-well ELISA plates (0.3 μg/well). CFC-1” for “CFC-1”

B1: RhmAb2.102 (antibody, human IgG1, lambda)
heavy: not shown
light: QSVLTQPPSMSAAPGQKVTISCSGSSSNIGNNYVSWYQQVPGTAPKLLIYDDNKRPSGIPGRFSGSKSATSATLGITGLQAGDEADYYCGSWDDNLSVVLFGGGTKLTVLGQPKAAPSVTLFPPSSEELQANKATLVCLISDFYPGAVTVAWKADSSPVKAGVETTTPSKQSNNKYAASSYLSLTPEQWKSHRSYSCQVTHEGSTVEKTVAPTECS
notes: Human IgG1 lambda; also called Rhm2.102
In the case of B1, the OD [1] is reported as 0.082 OD, the OD [2] is reported as 0.091 OD and the OD (huFibα XH) is reported as 0.116 OD. The OD (huFibα XG) was 1.51 OD, the OD [3] was 0.091 OD and the OD (CFC-1 [4]) was 3.12 OD. For the same binder, the OD [5] was 0.071 OD, the OD [6] was 0.06 OD and the OD [7] was 3.08 OD. The OD [8] was 1.18 OD, the OD [9] was 2.72 OD and the OD [10] was 0.166 OD. For the same binder, the OD [11] was 0.054 OD, the OD [12] was 0.06 OD and the OD (CFC-1 [13]) was 0.178 OD. The OD [14] was 0.05 OD, the OD [15] was 0.052 OD and the OD [16] was 0.161 OD. For the same binder, the OD [17] was 0.08 OD, the OD [18] was 0.135 OD and the OD [19] was 0.065 OD. It also gave an OD [20] of 0.052 OD.
